T1: Recombinant human PSGL-1(ECD)-hFc1 (R&D Systems, Cat. 3345-PS) (human, UniProt Q14242 42-305)
T1 construct: Bought; Gln42-Val295 counted on AAC50061; also called PSGL-1-Fc; PSGL-1-hFc1 chimera; not shown: human IgG1 Fc, Pro100-Lys330
T1 sequence: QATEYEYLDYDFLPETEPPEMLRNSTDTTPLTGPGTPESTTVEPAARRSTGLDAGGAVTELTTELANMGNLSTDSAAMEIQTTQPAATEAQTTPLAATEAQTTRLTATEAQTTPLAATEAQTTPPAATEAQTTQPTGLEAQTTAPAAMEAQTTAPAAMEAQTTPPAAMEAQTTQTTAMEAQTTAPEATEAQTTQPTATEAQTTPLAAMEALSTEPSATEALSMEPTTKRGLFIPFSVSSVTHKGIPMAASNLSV


Target: T1, Recombinant human PSGL-1(ECD)-hFc1 (R&D …)
Experiment: blocking ELISA vs VISTA-Fc, pH 6.0

Row | % max Block [%] | IC50 [nM] | Binder
1 | 100 | 9 | 43B6 (antibody, V domains shown, Control anti-PSGL-1 mAb, recombinant; only variable domains given; also called 43B3) VH: EVQLQQSGPDLVKPGALVKISCKASGYSFTAYYIHWVKQSHGKSLEWIGRVNPNTGGTSYNPKFKGKAILNVDKSSSTAYMELRSLTSEDSAVYYCARSGSPYYRYDDWGQGTTLTVSS VL: ENVLTQSPAIMSASPGEKVTMTCRASSTVNSTYLHWFQQKSGASPKLWIYGSSNLASGVPARFSGSGSGTSYSLTISSVEAEDAATYYCQQYSGYPLTFGAGTTLELK
2 | 0 | – | 19N05 (antibody, V domains shown, From mouse immunisation; only variable domains given) VH: QIQLVQSGPELKKPGETVKISCKASGYTFTTYGMSWVKQAPGKGLKWMGWINTYSGVPTFADDFKGRFAFSLETSASTAYLQINNLKNEDTATFFCARNYYGNHYFDYWGQGTTLTVSS VL: DVQITQSPSYLAASPGETISINCRASNNINKYLAWYQEKPGKTNKLLIYSGSTLQSGIPSRFSGSGSGTDFTLTISSLEPEDFAMYHCQQHNYYPLTFGAGTKLELK

More lines, now with the values behind:

Row | Binder | % max Block [%] | IC50 [nM]
3 | 18K07 (antibody, V domains shown, From mouse immunisation; only variable domains given) VH: QIQLVQSGPELKKPGETVKISCEASGYTFTTYGMNWVKQAPGKGLKWMGWINTYSGVPTYADDFQGRFAFSVETSATTAYLQINNLKNEDAATYFCARSDDTYYGFAYWGQGTLVTVSA VL: not shown | 0 | –
4 | 16E17 (antibody, V domains shown, From mouse immunisation; only variable domains given) VH: QIQLVQSGPELKKPGETVKISCKASGYAFTTYGMSWVKQAPGKGLKWMGWINTYSGVPKYADDFKGRFAFSLETSASTAYLHINNLKNEDTATYFCGRHYYGSSYFDYWGQGTTLTVSS VL: not shown | 0 | –
5 | 19L04 (antibody, IgG4, V domains shown, From mouse immunisation; only variable domains given) VH: QIQLVQSGPELKKPGETVKISCKASGYTFTTYGMSWVKQAPGKGLKWMGWINTYSGVPTYADDFKGRFAFSLETSASTAYLQINNLKIEDTATYFCARHYYGSHYFDYWGQGTTLTVSS VL: DIMMTQSPSSLAMSVGQKVTLRCKSSQSLLNSSNQKNYLAWYQQKPGQSPKLLVYFASTRESGVPVRFIGSGSGTDFTLTISSMQAEDLADYFCQQHYFSPLTFGAGTKLELK | 0 | –
6 | 9F9 (antibody, V domains shown, Control anti-PSGL-1 mAb, recombinant; only variable domains given; also called 9F6) VH: EVQLVETGGGLVQPKGSLKLSCAASGFTFNTNAMNWVRQAPGKGLEWVARIRSKSNNYATYYADSVKDRFTISRDDTQSMIYLQMNNLKTEDTGMYYCVRGGSYWYFDVWGAGTTVTVSS VL: DVLMTQTPLSLPVSLGDQASISCRSSQSIVNSNGNTYLEWYLQKPGQSPKLLIYKVSNRFSGVPDRFSGSGSGTDFTLKISRVEAEDLGVYYCFQGSHVPWTFGGGTKLEIK | 100 | 8

— patent US20220396632A1 (VERSEAU THERAPEUTICS, published 2022)
